Results as given in patent US20020131964A1.

What was measured:
[1] = target: wild type single chain urokinase (scuPA) (Homo sapiens (Human)) (UniProt P00749); assay: cell-based or functional assay
[2] = target: two chain urokinase (tcuPA) (Homo sapiens (Human)) (UniProt P00749); assay: cell-based or functional assay

## soluble recombinant human urokinase receptor (suPAR) (from UniProt Q03405 23-299)
[1]
  EC50 of phenylepherine (PE)-induced contraction of rat aortic rings: 29 nM
[2]
  EC50 of phenylepherine (PE)-induced contraction of rat aortic rings: 29 nM
